{"source": "paper PMC12278347", "about": "“Exploiting SpyTag/SpyCatcher Technology to Design New Artificial Catalytic Copper Proteins” (Chembiochem, 2025)", "binders": {"B1": {"name": "ATCUN(DAH)‐SpyTag002 (peptide)", "peptide": "DAHVPTIVMVDAYKRY-NH2", "notes": "SpyTag002 peptide with an N-terminal DAH ATCUN copper site; lacks the last lysine and ends with an amidated tyrosine; also called ST‐A2; ST; source: synthetic peptide (solid‐phase peptide synthesis, RP‐HPLC)"}, "B2": {"name": "ATCUN(GSH)‐SpyTag002 (peptide)", "peptide": "GSHVPTIVMVDAYKRYK", "notes": "SpyTag002 peptide with an N-terminal GSH ATCUN copper site; also called ST‐A1; ST; source: synthetic peptide (solid‐phase peptide synthesis, RP‐HPLC)"}}, "target": "T1, SpyCatcher002‐mut (H26Q H62Q), cleaved with TEV protease", "T1 construct": "Second-generation SpyCatcher (SC002) redesigned with H26Q and H62Q; also called SC1m; SCm; source: recombinant, purified; not shown: HisTag, N-terminal, cleaved", "T1 sequence (chain, as listed by the source)": "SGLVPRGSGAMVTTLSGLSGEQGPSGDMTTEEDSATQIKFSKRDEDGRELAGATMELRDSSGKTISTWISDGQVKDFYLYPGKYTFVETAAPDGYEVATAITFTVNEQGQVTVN", "experiment": "LC-MS of the covalent adduct; 25 μM each in 20 mM HEPES, pH 7.4, room temperature, injected after 5 min; isopeptide-bonded ST/SC adduct detected by MS; repeated with Cu2+ without effect on adduct formation", "conditions": "both partners purified", "note": "No end group written: not given here.", "data": [{"binder": "B1", "values": [{"measurement": "binding result", "value": "binds"}]}, {"binder": "B2", "values": [{"measurement": "binding result", "value": "binds"}]}]}
